# According to article doi:10.1101/2022.02.02.478874 (bioRxiv, 2022):
# T1: ^mChSpindly^ΔRV (human, UniProt Q96EA4 1-605, ΔRV (residues R154-V155))
# T1 sequence: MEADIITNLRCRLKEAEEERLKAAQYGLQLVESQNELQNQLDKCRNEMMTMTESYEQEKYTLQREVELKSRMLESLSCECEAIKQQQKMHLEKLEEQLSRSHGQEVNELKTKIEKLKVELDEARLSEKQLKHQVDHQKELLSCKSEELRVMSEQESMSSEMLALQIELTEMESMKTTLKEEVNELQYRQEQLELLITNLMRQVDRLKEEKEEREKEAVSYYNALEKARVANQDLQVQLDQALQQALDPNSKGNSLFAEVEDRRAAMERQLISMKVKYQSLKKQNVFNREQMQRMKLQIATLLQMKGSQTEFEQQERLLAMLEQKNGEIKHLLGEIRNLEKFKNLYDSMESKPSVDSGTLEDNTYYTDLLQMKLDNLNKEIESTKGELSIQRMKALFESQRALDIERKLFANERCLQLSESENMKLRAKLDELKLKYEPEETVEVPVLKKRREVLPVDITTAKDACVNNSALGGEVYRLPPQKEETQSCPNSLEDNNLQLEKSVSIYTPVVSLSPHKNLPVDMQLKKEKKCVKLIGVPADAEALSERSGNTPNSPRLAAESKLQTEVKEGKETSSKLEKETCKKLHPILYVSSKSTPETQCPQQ
# B1: ^mChSpindly^CC2* (R295E-K297E) (natural protein)
# chain: MEADIITNLRCRLKEAEEERLKAAQYGLQLVESQNELQNQLDKCRNEMMTMTESYEQEKYTLQREVELKSRMLESLSCECEAIKQQQKMHLEKLEEQLSRSHGQEVNELKTKIEKLKVELDEARLSEKQLKHQVDHQKELLSCKSEELRVMSERVQESMSSEMLALQIELTEMESMKTTLKEEVNELQYRQEQLELLITNLMRQVDRLKEEKEEREKEAVSYYNALEKARVANQDLQVQLDQALQQALDPNSKGNSLFAEVEDRRAAMERQLISMKVKYQSLKKQNVFNREQMQEMELQIATLLQMKGSQTEFEQQERLLAMLEQKNGEIKHLLGEIRNLEKFKNLYDSMESKPSVDSGTLEDNTYYTDLLQMKLDNLNKEIESTKGELSIQRMKALFESQRALDIERKLFANERCLQLSESENMKLRAKLDELKLKYEPEETVEVPVLKKRREVLPVDITTAKDACVNNSALGGEVYRLPPQKEETQSCPNSLEDNNLQLEKSVSIYTPVVSLSPHKNLPVDMQLKKEKKCVKLIGVPADAEALSERSGNTPNSPRLAAESKLQTEVKEGKETSSKLEKETCKKLHPILYVSSKSTPETQCPQQ
# Assays:
# [1] = molecular target: ROD-Zwilch-ZW10 (RZZ) complex with mCherry on ROD (UniProt P50748;Q9H900;O43264); assay: SEC
# mass photometry = molecular target: the molecule itself; assay: mass photometry
# [2] = molecular target: B1; assay: pull-down
# ^mChSpindly^ΔRV = molecular target: T1, ^mChSpindly^ΔRV; assay: pull-down
# Sequence of ROD-Zwilch-ZW10 (RZZ) complex with mCherry on ROD (P50748 whole entry, chain 1 of 3): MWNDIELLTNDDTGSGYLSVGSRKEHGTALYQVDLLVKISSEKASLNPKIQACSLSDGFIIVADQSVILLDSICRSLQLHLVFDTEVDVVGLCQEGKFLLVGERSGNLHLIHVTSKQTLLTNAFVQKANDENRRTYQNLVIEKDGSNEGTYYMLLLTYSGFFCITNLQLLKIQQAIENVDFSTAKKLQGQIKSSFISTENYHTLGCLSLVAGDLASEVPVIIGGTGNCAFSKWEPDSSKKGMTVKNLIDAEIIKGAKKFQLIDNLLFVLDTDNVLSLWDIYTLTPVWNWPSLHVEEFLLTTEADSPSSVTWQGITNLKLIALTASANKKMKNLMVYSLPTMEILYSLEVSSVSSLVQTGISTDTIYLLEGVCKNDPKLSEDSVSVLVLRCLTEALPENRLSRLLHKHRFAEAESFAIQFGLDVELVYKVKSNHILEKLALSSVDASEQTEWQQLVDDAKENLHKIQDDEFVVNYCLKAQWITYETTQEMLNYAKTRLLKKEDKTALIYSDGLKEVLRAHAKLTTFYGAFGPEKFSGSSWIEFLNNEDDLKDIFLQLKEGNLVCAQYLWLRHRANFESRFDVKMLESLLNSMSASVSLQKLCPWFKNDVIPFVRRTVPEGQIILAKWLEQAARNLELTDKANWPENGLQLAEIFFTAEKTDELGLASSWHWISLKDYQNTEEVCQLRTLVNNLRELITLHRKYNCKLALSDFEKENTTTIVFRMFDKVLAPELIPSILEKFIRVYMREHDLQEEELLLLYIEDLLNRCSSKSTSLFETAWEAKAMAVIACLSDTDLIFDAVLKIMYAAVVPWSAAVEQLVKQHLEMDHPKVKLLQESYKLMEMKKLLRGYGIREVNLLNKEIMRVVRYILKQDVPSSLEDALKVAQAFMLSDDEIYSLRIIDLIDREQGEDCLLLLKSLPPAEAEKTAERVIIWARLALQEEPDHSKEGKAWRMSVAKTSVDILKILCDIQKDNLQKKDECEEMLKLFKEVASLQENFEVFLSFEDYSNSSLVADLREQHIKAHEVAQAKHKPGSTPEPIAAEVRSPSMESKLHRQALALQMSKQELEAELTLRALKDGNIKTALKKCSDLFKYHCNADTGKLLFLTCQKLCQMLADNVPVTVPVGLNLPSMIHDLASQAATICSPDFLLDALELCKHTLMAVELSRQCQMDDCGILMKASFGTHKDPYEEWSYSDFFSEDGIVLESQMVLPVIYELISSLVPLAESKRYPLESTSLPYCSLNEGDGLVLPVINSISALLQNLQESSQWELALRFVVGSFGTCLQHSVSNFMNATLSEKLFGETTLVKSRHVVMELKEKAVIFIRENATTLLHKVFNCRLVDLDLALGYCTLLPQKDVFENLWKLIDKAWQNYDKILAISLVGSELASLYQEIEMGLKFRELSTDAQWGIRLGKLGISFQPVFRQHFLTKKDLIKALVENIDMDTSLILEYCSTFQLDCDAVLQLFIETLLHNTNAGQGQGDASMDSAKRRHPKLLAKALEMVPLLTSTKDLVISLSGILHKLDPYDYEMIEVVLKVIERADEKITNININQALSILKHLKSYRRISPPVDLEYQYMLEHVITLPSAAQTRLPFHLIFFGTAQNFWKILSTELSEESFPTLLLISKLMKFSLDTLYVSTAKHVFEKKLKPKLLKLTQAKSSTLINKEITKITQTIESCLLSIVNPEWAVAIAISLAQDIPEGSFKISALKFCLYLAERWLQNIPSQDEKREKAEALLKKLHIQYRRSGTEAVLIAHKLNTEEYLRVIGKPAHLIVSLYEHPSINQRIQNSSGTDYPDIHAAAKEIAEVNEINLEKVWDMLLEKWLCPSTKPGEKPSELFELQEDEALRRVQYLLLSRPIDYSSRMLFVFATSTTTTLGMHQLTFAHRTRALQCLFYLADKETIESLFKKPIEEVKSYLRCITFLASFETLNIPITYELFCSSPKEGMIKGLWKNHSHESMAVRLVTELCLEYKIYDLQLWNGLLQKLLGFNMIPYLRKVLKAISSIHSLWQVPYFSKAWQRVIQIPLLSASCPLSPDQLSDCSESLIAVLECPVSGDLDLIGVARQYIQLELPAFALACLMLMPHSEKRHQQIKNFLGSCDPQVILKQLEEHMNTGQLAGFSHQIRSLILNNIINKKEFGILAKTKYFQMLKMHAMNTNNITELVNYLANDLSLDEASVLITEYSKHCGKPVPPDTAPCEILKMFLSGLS
# Sequence of ROD-Zwilch-ZW10 (RZZ) complex with mCherry on ROD (Q9H900 whole entry, chain 2 of 3): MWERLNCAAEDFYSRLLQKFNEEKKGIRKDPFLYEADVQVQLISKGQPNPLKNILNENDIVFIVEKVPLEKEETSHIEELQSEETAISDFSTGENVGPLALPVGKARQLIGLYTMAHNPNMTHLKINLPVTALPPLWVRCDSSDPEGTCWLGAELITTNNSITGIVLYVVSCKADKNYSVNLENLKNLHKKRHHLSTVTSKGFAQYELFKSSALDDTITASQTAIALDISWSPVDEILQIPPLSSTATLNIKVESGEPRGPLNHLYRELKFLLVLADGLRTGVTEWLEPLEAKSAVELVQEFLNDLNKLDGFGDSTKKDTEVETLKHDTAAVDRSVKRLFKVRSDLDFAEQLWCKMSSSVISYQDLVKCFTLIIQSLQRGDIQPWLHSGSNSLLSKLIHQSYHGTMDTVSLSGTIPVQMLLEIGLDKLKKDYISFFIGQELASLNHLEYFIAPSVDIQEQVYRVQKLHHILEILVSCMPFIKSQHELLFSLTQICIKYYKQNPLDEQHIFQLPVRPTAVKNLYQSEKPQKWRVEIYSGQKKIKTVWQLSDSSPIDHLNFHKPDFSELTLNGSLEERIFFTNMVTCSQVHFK
# Sequence of ROD-Zwilch-ZW10 (RZZ) complex with mCherry on ROD (O43264 whole entry, chain 3 of 3): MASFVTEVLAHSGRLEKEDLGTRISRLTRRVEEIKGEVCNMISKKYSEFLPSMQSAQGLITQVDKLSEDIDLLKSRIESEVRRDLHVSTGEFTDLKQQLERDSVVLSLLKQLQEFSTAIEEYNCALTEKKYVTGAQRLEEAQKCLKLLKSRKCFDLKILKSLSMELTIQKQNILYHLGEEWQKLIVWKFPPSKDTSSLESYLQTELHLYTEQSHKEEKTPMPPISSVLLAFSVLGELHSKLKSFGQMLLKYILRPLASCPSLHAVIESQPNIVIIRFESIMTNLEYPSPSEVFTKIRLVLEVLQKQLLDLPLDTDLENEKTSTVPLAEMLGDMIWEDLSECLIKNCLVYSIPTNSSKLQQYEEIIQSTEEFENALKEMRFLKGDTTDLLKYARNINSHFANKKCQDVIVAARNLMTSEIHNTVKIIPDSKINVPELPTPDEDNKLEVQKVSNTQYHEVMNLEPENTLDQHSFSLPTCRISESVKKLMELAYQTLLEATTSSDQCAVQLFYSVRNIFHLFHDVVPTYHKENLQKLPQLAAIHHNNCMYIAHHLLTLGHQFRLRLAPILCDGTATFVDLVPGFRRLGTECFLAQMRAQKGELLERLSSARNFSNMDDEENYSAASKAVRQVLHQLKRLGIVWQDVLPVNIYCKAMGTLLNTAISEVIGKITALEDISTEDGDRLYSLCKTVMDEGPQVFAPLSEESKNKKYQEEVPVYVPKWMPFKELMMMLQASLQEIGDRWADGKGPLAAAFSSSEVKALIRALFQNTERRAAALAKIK
binder,measurement,setting,value
B1,binding result,[1],binds
same,stoichiometry N,mass photometry,2
GST-tagged LIC2 (Dynein light intermediate chain 2) (natural protein) MAPVGVEKKLLLGPNGPAVAAAGDLTSEEEEGQSLWSSILSEVSTRARSKLPSGKNILVFGEDGSGKTTLMTKLQGAEHGKKGRGLEYLYLSVHDEDRDDHTRCNVWILDGDLYHKGLLKFAVSAESLPETLVIFVADMSRPWTVMESLQKWASVLREHIDKMKIPPEKMRELERKFVKDFQDYMEPEEGCQGSPQRRGPLTSGSDEENVALPLGDNVLTHNLGIPVLVVCTKCDAVSVLEKEHDYRDEHLDFIQSHLRRFCLQYGAALIYTSVKEEKNLDLLYKYIVHKTYGFHFTTPALVVEKDAVFIPAGWDNEKKIAILHENFTTVKPEDAYEDFIVKPPVRKLVHDKELAAEDEQVFLMKQQSLLAKQPATPTRASESPARGPSGSPRTQGRGGPASVPSSSPGTSVKKPDPNIKNNAASEGVLASFFNSLLSKKTGSPGSPGAGGVQSTAKKSGQKTVLSNVQEELDRMTRKPDSMVTNSSTENEA,binding result,[2],binds
same,binding result,^mChSpindly^ΔRV,binds
